Results on 1 protein are retold here after US20180216138.

The data set concerns the target ferredoxin (CA_C0303) from Clostridium acetobutylicum.

B1: Ferredoxin-NADP+ reductase from Clostridium acetobutylicum encoded by CA_C0764 (protein)
chain: MDNPNLLSEEANRCLLCKNPRCKANCPINTPIPEIISLYKEGKIMEAGEILFNNNPLSVICSLVCIHEDQCKGNCVRGIKSEPIKFHEIEEEISEKYLKEAKLKNVQKDKDRIAIVGGGPAGITVAFVLANKGYNVTIFEAHDKIGGVLRYGIPEYRLTKKLVDKLEERLIEVGVKIRPNTVIGPVISLDRLLEDSYKAVFIGTGVWNPKTLDVKGETLGNVHFAIDYLKSPESYRLGKKVAVIGAGNVAMDAARTAKRNGAEVTILYRKSFNEMPASKQEIRETKEDGVEFKLFRAPIEITEEGIKVAFTENVTDAEGKIRTKIIEGKEEFFECDSVVVAVSQAPKDNIVSNTTGLDTKWGLIVTDEKGNTTKKGTFACGDVVTGAKTVVEAAAQAKVVAETIDEYCKNN
B1 returned a Ferredoxin NADP+ reductase specific activity of 9.5 U/mg protein.
